According to article PMC2605266:

Key:
[1] = target: T1, GST fused to the cytosolic domain of VAMP4 (human); assay: pull-down; 5 ug GST fusion protein immobilised on glutathione Sepharose, 5 ug His-tagged Munc18c in 500 ul, overnight at 4 C; binding buffer 150 mM potassium acetate, 1 mM MgCl2, 0.05% Tween 20, 20 mM HEPES pH 7.4; bound Munc18c detected by immunoblot
T1 sequence (O75379 whole entry, looked up): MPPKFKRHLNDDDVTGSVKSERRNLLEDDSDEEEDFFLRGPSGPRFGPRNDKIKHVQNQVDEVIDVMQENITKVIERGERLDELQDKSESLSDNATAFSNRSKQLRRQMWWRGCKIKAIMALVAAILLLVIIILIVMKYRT

[2] = target: T2, GST fused to the cytosolic domain of VAMP8 (human); assay: as above
T2 sequence (Q9BV40 whole entry, looked up): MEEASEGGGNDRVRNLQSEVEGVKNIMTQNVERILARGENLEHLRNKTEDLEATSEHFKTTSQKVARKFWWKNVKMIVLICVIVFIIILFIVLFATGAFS

binding as percent of that observed for VAMP2 [1]: < 14% | binding as percent of that observed for VAMP2 [2]: < 14%
B1: Munc18c, N-terminal His6-fusion protein (natural protein)
chain: MAPPVSERGLKSVVWRKIKTAVFDDCRKEGEWKIMLLDEFTTKLLSSCCKMTDLLEEGITVIENIYKNREPVRQMKALYFISPTPKSVDCFLRDFGSKSEKKYKAAYIYFTDFCPDSLFNKIKASCSKSIRRCKEINISFIPQESQVYTLDVPDAFYYCYSPDPSNASRKEVVMEAMAEQIVTVCATLDENPGVRYKSKPLDNASKLAQLVEKKLEDYYKIDEKGLIKGKTQSQLLIIDRGFDPVSTVLHELTFQAMAYDLLPIENDTYKYKTDGKEKEAVLEEDDDLWVRVRHRHIAVVLEEIPKLMKEISSTKKATEGKTSLSALTQLMKKMPHFRKQISKQVVHLNLAEDCMNKFKLNIEKLCKTEQDLALGTDAEGQRVKDSMLVLLPVLLNKNHDNCDKIRAVLLYIFGINGTTEENLDRLIHNVKIEDDSDMIRNWSHLGVPIVPPSQQAKPLRKDRSAEETFQLSRWTPFIKDIMEDAIDNRLDSKEWPYCSRCPAVWNGSGAVSARQKPRTNYLELDRKNGSRLIIFVIGGITYSEMRCAYEVSQAHKSCEVIIGSTHILTPRKLLDDIKMLNKSKDKVSFKDE
